Measurements from patent US11111484B2, “Streptococcus bacteriophage lysins for detection and treatment of gram positive bacteria” (priority 2011, dated 2021).
Several values for one entry are separate records, joined by “and”; a condition that tells them apart may be missing. Equal entries are not always repeated. Entries after “also recorded” stand apart in the source; their conditions may differ. Where two headings read alike, the source gives them in different places.

Assays:
S. pyogenes strains = test: PlySs2 lytic activity against species and strains (FIG. 25); format: cell-based, Streptococcus pyogenes; settings: S. pyogenes serotypes M1, M3, M4, M6, M18, M49, variant without M protein
Protocol: FIG. 25 provides PlySs2 activity against different species and strains. Log-phase cultures were exposed to 32 μg/ml PlySs2 for 60 minutes in phosphate buffer. The final OD600 of the treated samples were divided by the final OD600 of the untreated samples to generate the normalized values above. Multiple Staphylococci (including, but not limited to: MRSA, MSSA, and VISA), Streptococci, Listeria, Enterococci, and Bacilli were tested for susceptibility to PlySs2 activity. Escherichia and Pseudomonas were tested as Gram-negative controls.

S. suis 7997 = test: PlySs2 biochemical characterization, turbidity reduction (OD600)
S. agalactiae = test: CFU studies, bactericidal effect; format: cell-based, Streptococcus agalactiae; settings: 128 μg/ml PlySs2, 60 mins
Protocol: Log-phase bacteria were resuspended in buffer A to an OD600 of 0.1 (=0.5 McFarland≈10^8 CFU/ml). PlySs2 was added at 128 μg/ml to polypropylene microtiter plates (Costar) in triplicate for each test organism. Plates were sealed and incubated at 37° C. with shaking every 5 minutes for 1 hour. After 1 hour of incubation, cells were serially diluted in 10-fold increments and plated on BHI. Triplicate controls for each strain were performed with buffer B replacing PlySs2.

MRSA = test: rat MRSA wound infection with sterile sand (foreign body); format: in vivo, rats; settings: for CFU/Gram, AVG: 10 mg PlySs2 single dose, 15 rats, after 10 days, not true Avg since < values
Protocol: Animal experiments were initiated by determining the infectious dose of MRSA necessary to cause infection in the rat wound. […] However, when we added a foreign body ([…]), infection occurred at <10^8 CFUs. Specifically, incisions were made in the backs of the rats (5-6 cm in length) and a 2-3 mm incision was made in the underlying tissue. To this was added 100 mg sterile sand and 50 μl of MRSA. The wounds were stapled closed and the animals followed for 10 days and the wounds opened and examined for gross changes and tissue samples taken for bacteriological examination.
Samples (weighed and homogenized tissue) taken from the opened wound yielded about 10^7 CFU MRSA/gram of tissue. This model was very reproducible yielding the same results in at least 10 animals.
We used the model as described above to treat with PlySs2 lysin to determine the effects of the treatment. In this case, half of the animals receiving the MRSA and sand were treated with 10 mg PlySs2 in 50 ul of phosphate buffer (PB), control animals received PB instead 10 minutes after MRSA dosing. The animals were followed for 10 days. At this time the animals were analyzed for gross changes and microbiology. […] This is in sharp contrast to animals treated with a single dose of PlySS2.

[1] = system: MRSA strain MW2 and S. pyogenes strain MGAS5005; test: murine septicemia model, mixed MRSA and S. pyogenes infection; format: in vivo, FVB/NJ mice; settings: PlySs2 2 mg, ClyS 1 mg + PlyC 1 mg
Protocol: The Rockefeller University's Institutional Animal Care and Use Committee approved all in vivo protocols. A systemic infection model described in Daniel, A. et al., was used to test for the in vivo efficacy of PlySs2 against multiple gram-positive bacteria. Briefly, 4-5 week old female FVB/NJ mice (weight range 15 to 20 g) were obtained from The Jackson Laboratory (Bar Harbor, Me.). After a period of acclimation, mice were injected intraperitoneally (IP) with 0.5 ml of mid log-phase (OD600 0.5) bacteria diluted with 5% hog gastric mucin (Sigma) in saline. Bacterial suspensions contained ˜5×10^5 CFU/ml of MW2, a PVL toxin-encoding MRSA strain, ˜1×10^7 of MGAS5005, an M1 serotype of Streptococcus pyogenes that is virulent in humans and mice (Musser), or a combination of both bacteria simultaneously at the above concentrations for the mix infection experiments. Actual bacterial inoculation titers were calculated by serial dilution and plating to Columbia blood agar plates for each experiment. […] The survival rate for each experimental group was monitored every 12 hours for the first 24 hours then every 24 hours up to 10 days post-infection. The data were statistically analyzed by Kaplan Meier Survival curves and a Logrank test performed for 95% confidence intervals using the Prism computer program (GraphPad Software; La Jolla, Calif.). […]

S. simulans TNK3 = test: ΔPlySs1 OD600 lysis, 1 hr, optimal buffering conditions; format: cell-based, Staphylococcus simulans
B. anthracis ΔSterne = format: cell-based, Bacillus anthracis

B1: PlySs2: Streptococcus suis prophage lysin, SEQ ID NO:3; N-terminal CHAP domain and C-terminal SH3-type 5 domain (protein, listed as Streptococcus suis)
chain: MTTVNEALNNVRAQVGSGVSVGNGECYALASWYERMISPDATVGLGAGVGWVSGAIGDTISAKNIGSSYNWQANGWTVSTSGPFKAGQIVTLGATPGNPYGHVVIVEAVDGDRLTILEQNYGGKRYPVRNYYSAASYRQQVVHYITPPGTVAQSAPNLAGSRSYRETGTMTVTVDALNVRRAPNTSGEIVAVYKRGESFDYDTVIIDVNGYVWVSYIGGSGKRNYVATGATKDGKRFGNAWGTFK
S. pyogenes strains
  lytic activity: had activity against all strains of S. pyogenes
S. suis 7997
  consecutive room temperature to −80° C. freeze-thaws without effect on activity: 10
S. suis 7997; 0-1000 mM NaCl, constant enzyme concentration
  effect of NaCl on bacteriolysis: bacteriolysis decreased from 0-1000 mM NaCl
S. suis 7997; 15 mM Na3PO4, pH 8.0, various EDTA concentrations
  effect of EDTA on lysis: impeded PlySs2-induced lysis
S. suis 7997; 4° C., 15 days
  activity after 15 days of 4° C. incubation: no observable decrease in activity; also recorded: stable
S. suis 7997; 37° C., 24 hours
  activity after incubation at 37° C. for 24 hours: retained full activity; also recorded: stable
S. suis 7997; 37° C., 24 hours, killing of strain 7997
  stability up to 24 hours at 37° C. in buffer: > 90%
S. suis 7997; 37° C., 48 hours
  activity after 48-hour 37° C. incubation: diminished activity
  activity maintained after 48 hours at 37° C.: at least 50%
S. suis 7997; 30 min incubation
  temperature at which activity completely abolished: 60 °C
S. suis 7997; BTP buffer pH 7.0-9.7
  pH of maximal lysis in BTP: 9.7
S. suis 7997; Bis-tris propane (BTP) buffer
  acute activity up to pH: ≤ 9.7
S. suis 7997; PlySs2 32 μg/ml
  activity down to pH: ≥ 6.0
S. suis 7997; data not shown
  effect of excess DTT on activity: no impact
S. suis 7997; phosphate/citrate buffer pH 4.6-8.0, PlySs2 32 μg/ml
  pH of strongest activity: 8.0
S. suis 7997; up to at least 7 months at −80° C.
  activity retained on storage in buffer at −80° C.: ~100%
S. suis 7997; various NaCl concentrations
  NaCl concentration of greatest activity: 0 mM
S. agalactiae
  reduction in CFU counts: dramatically reduced
MRSA; 10 mg PlySs2 single dose 10 minutes after MRSA, wound tissue after 10 days
  CFU/Gram, individual rats P1-P15: <5.00E+01 CFU/Gram (10×) and 9.10E+01 CFU/Gram and 5.00E+01 CFU/Gram and 8.40E+02 CFU/Gram and 3.20E+02 CFU/Gram (2×)
MRSA
  CFU/Gram, AVG: 1.41×10^2 CFU/Gram
MRSA; listed as PLYSS2
  CFU/Gram, AVG: 1.41E+02 CFU/Gram
MRSA; AVG buffer / AVG PlySs2
  CFU Reduction vs Control: CFU Reduction vs Control 3.02E+04
MRSA; PlySs2 vs buffer, wound tissue after 10 days
  reduction of MRSA: > 4 logs
MRSA; single dose of PlySS2, 10 days
  gross changes of wounds: did not exhibit pus or necrosis and exhibited better healing
[1]
  survival of mixed infection: 92%
  survival of mixed infection (mice surviving/total): 22 of 24 and 22/24

B2: ΔPlySs1: truncated PlySs1 lysin, SEQ ID NO:2, N-terminal 254 amino acids: only N-terminal enzymatic and central binding domains (protein, listed as Streptococcus suis)
chain: MTINLETSIRWMSDRVGKVSYSMDYRNGPNSYDCSSAVYYALMAGGAISAGWAVNTEYMHDWLIRNGYVLVAENKPFNAQRHDVCILGKRGYSSGAGGHVVIFVDNVNVIHCNYARNGISIDNYNQVHRGMYYYLYRPANQPSISNKSLDQLVKETLAGVHGNGDTRKASLGSQYEAVMAVINGKASASEKSDEELAREVLAGKHGAGEDRKRSLGPRYEPVQAKVNELLKAKEKPSETAKNEPQTVQFKEDGDL
S. simulans TNK3; 6.5 μg/ml
  lysis value after 1 hr (treated/untreated OD600 ratio): 0.96
S. simulans TNK3; 13 μg/ml
  lysis value after 1 hr (treated/untreated OD600 ratio): 1.00
S. simulans TNK3; 30 μg/ml
  lysis value after 1 hr (treated/untreated OD600 ratio): 1.00
S. simulans TNK3; 65 μg/ml
  lysis value after 1 hr (treated/untreated OD600 ratio): 1.00
S. simulans TNK3; 130 μg/ml
  lysis value after 1 hr (treated/untreated OD600 ratio): 0.96
B. anthracis ΔSterne; 6.5 μg/ml
  lysis value after 1 hr (treated/untreated OD600 ratio): 1.02
B. anthracis ΔSterne; 30 μg/ml
  lysis value after 1 hr (treated/untreated OD600 ratio): 1.02
B. anthracis ΔSterne; 65 μg/ml
  lysis value after 1 hr (treated/untreated OD600 ratio): 0.98
B. anthracis ΔSterne; 130 μg/ml
  lysis value after 1 hr (treated/untreated OD600 ratio): 0.90
